Data as given in patent US7285703B2, “Plant like starches and the method of making them in hosts” (BASF Plant Science GmbH, priority 1998, dated 2007).

B1: pEXS-wx: maize GBSS (waxy), N-terminus ASAGMNVVFV, expressed from this plasmid in E. coli BL21 (DE3) (protein, UniProt P04713 73-605, looked up)
Granule-bound starch synthase …: ASAGMNVVFVGAEMAPWSKTGGLGDVLGGLPPAMAANGHRVMVVSPRYDQYKDAWDTSVVSEIKMGDGYETVRFFHCYKRGVDRVFVDHPLFLERVWGKTEEKIYGPVAGTDYRDNQLRFSLLCQAALEAPRILSLNNNPYFSGPYGEDVVFVCNDWHTGPLSCYLKSNYQSHGIYRDAKTAFCIHNISYQGRFAFSDYPELNLPERFKSSFDFIDGYEKPVEGRKINWMKAGILEADRVLTVSPYYAEELISGIARGCELDNIMRLTGITGIVNGMDVSEWDPSRDKYIAVKYDVSTAVEAKALNKEALQAEVGLPVDRNIPLVAFIGRLEEQKGPDVMAAAIPQLMEMVEDVQIVLLGTGKKKFERMLMSAEEKFPGKVRAVVKFNAALAHHIMAGADVLAVTSRFEPCGLIQLQGMRYGTPCACASTGGLVDTIIEGKTGFHMGRLSVDCNVVEPADVKKVATTLQRAIKVVGTPAYEEMVRNCMIQDLSWKGPAKNWENVLLSLGVAGGEPGVEGEEIAPLAKENVAAP
modifications: expressed in E. coli
B2: maize starch synthase SSIIa-1, putative full length SSIIa (669 amino acids), N-terminus AEAEAGGK (SEQ ID NO:68) (Zea mays) (protein)
chain: AEAEAGGKDAPPERSGDAARLPRARRNAVSKRRDPLQPVGRYGSATGNTARTGAASCQNAALADVEIVEIKSIVAAPPTSIVKFPGRGLQDDPSLWDIAPETVLPAPKPLHESPAVDGDSNGIAPPTVEPLVQEATWDFKKYIGFDEPDEAKDDSRVGADDAGSFEHYGTMILGLCGENVMNVIVVAAECSPWCKTGGLGDVVGALPKALARRGHRVMVVVPRYGDYVEAFDMGIRKYYKAAGQDLEVNYFHAFIDGVDFVFIDASFRHRQDDIYGGSRQEIMKRMILFCKVAVEVPWHVPCGGVCYGDGNLVFIAMNWHTALLPVYLKAYYRDHGLMQYTRSVLVIHNIGHQGRGPVHEFPYMDLLNTNLQHFELYDPVGGEHANIFAACVLKMADRVVTVSRGYLWELKTVEGGWGLHDIIRSNDWKINGIRERIDHQEWNPKVDVHLRSDGYTNYSLETLDAGKRQCKAALQRDVGLEVRDDVPLLGFIGRLDGQKGVDIIGDAMPWIAGQDVQLVMLGTGPPDLERMLQHLEREHPNKVRGWVGFSVLMVHRITPGASVLVMPSRFAGGLNQLYAMAYGTVPVVHAVGGLRDTVAPFDPFGDAGLGWTFDRAEANKLIEVLSHCLDTYRNYEESWKSLQARGMSQNLSWDHAAELYEDVLVKYQW

How the values were obtained:
[1] = test system: maize starch synthases; test: Expression of maize starch synthases in Escherichia coli BL21 (DE3): specific activity; type: biochemical; conditions: 25° C., 5 mg/mL glycogen as primer
[2] = substrate: Nc1ncnc2c1ncn2[C@@H]1O[C@H](COP(=O)(O)OP(=O)(O)O[C@H]2O[C@H](CO)[C@@H](O)[C@H](O)[C@H]2O)[C@@H](O)[C@H]1O; test: ADPGlc kinetics of starch synthase SSIIa-1; type: biochemical, maize; conditions: other: amylopectin as primer, −citrate, 27° C.
Excerpt: FIG. 59. SSIIa-1 and SSIIa-2 construct diagram. Two forms of SSIIa were constructed in the pET expression system. pExs3c encodes SSIIa-1, the putative full length maize SSIIa which has the N-terminal sequence AEAEAGGK (SEQ ID NO:68). […] A depiction of the waxy gene, encoding GBSS which has the N-terminal sequence ASAGMNVV (SEQ ID NO:67), is also included for comparison. The amino acid motif KTGGL (SEQ ID NO:10), the putative binding site for ADPGlc, is indicated by the triangles. The KTGGL (SEQ ID NO:10) motif is located 18 amino acids from the N-terminus in GBSS, while the motif is 194 amino acids from the N-terminus in maize SSIIa.
5 mL of supernatant were used to assay STS and SBE activities as previously described (Preiss) with minor modification. […] […] The unincorporated [^14C]-ADPGlc was separated with Dowex anion exchange column (200-400 mesh, Sigma Chemical Co.). One unit of activity is defined as 1 nmol Glc incorporated into the a-glucan per min at 25° C. SBE activity was determined by phosphorylase stimulation assay. One unit of activity is defined as 1 mmol Glc incorporated into the a-glucan per min at. 30° C. […]

Row | Molecule | Specific Activities [1] [units/mg Protein] | Km [2] [µM]
1 | B1 | 0.033 | –
2 | B2 | – | 460 ± 60
